B1: 1.2b (VHH)
VHH: EVQLLESGGGLVKPGGSLRLSCAASGFTFSDYTMTWMRQAPGKGLEWVSYISTGGSIKYYTDSVKGRFTISRDNAKNSLYLQMNSLRADDTAVYYCAREAPLRLGESPHDAFDIWGQGTMVTVSS
B2: 1.67b (VHH)
VHH: QVQLVESGGGLVKPGGSLRLSCAASGFTFSGSSMTWMRQAPGKGLEWVSYISSGGGVIFYADSVKGRFTISRDNAKNSLYLQMNSLRADDTAVYYCAREAPLRLGESPHDAFDISGQGTMVTVSS
B3: 1.52b (VHH)
VHH: B2 VHH with G31D, S32N, I58K, F59Y, S115W
B4: 1.37b (VHH)
VHH: B1 VHH with E1Q, L5V, Y80F
B5: 1.17b (VHH)
VHH: B1 VHH with L5V, A88V
B6: 1.63b (VHH)
VHH: B2 VHH with Q1E, G31D, I58K, A61T
B7: 1.31b (VHH)
VHH: B1 VHH with E1Q, Q3T, L5K, I57T
B8: 1.60b (VHH)
VHH: B2 VHH with G31D, S32N, S53T, I58K, F59Y, S115W
B9: 1.50b (VHH)
VHH: B2 VHH with G31D, S32N, G56T, V57I, I58K, S115W
B10: 1.49b (VHH)
VHH: B2 VHH with G31D, T35S, S53T, I58K, S115W
B11: 1.36b (VHH)
VHH: B1 VHH with L5V, S56T, Y80F
B12: 1.47b (VHH)
VHH: B2 VHH with G31D, S32N, T35S, S115W
B13: 1.68b (VHH)
VHH: B2 VHH with S30G, G31D, S32N, Q117R, M120T
B14: 1.22b (VHH)
VHH: B1 VHH with L5V
B15: 1.51b (VHH)
VHH: B2 VHH with G31D, G56A, I58K, A61T, S115W
B16: 1.48b (VHH)
VHH: B2 VHH with G31D, I58K, S115W
B17: 1.29b (VHH)
VHH: B1 VHH with E1Q, Q3T, L5K, T35S, S56T
B18: 1.45b (VHH)
VHH: B2 VHH with G31D, S32Y, T35S, S115W
B19: 1.35b (VHH)
VHH: B1 VHH with A88V
B20: 1.69b (VHH)
VHH: B2 VHH with G31D, S32N, T35S
B21: 1.39b (VHH)
VHH: B1 VHH with E1Q, L5Q
B22: 1.64b (VHH)
VHH: B2 VHH with Q1E, G31D, I58K
notes: also called Humabody 1.64b
B23: 1.58b (VHH)
VHH: B2 VHH with G31D, S32N, S33T, S53T, I58K, S115W
B24: 1.70b (VHH)
VHH: B2 VHH with S30G, G31D, G56A, I58K, A61T
B25: 1.62b (VHH)
VHH: B2 VHH with G31D, G56A, I58K, A61T
B26: 1.4b (VHH)
VHH: B1 VHH with E1Q, L5V, T33Y, T35I, T53G, S56T, I57T, S107T
B27: 1.32b (VHH)
VHH: QVTLKESGGGLVKPGGSLRLSCAASGFTFSDDYMMWIRQAPGKGLEWVSYISSGGSIIYYADSVKGRFTISRDNAKNSLYLQMNSLRAEDTAVYYCAREAPLRLGESPHDAFDIRGQGTMVTVSS
B28: 1.42b (VHH)
VHH: B2 VHH with G31D, S32N, I58K, S115W
B29: 1.54b (VHH)
VHH: B2 VHH with G31D, S32D, S115W
B30: 1.10b (VHH)
VHH: B1 VHH with E1Q, L5V, T35S, V48I, T53L, S56N, I57T
B31: 1.55b (VHH)
VHH: B2 VHH with G31D, S32N, I58K
B32: 1.66b (VHH)
VHH: B2 VHH with G31D, I58K, A61T, N84D, I114T
B33: 1.53b (VHH)
VHH: B2 VHH with G31D, S32N, G56S, I58K, S115W
B34: 1.23b (VHH)
VHH: B1 VHH with E1Q, V2I, Q3T, L5K, T35S, S56T
B35: 1.65b (VHH)
VHH: B2 VHH with G31D, I58K
B36: 1.30b (VHH)
VHH: B1 VHH with E1Q, Q3T, L5K, K76R, D89E
B37: 1.43b (VHH)
VHH: B2 VHH with G31D, S115W
B38: 1.59b (VHH)
VHH: B2 VHH with G31D, S32N, T35S, G56S, I58K, S115W
B39: 1.20b (VHH)
VHH: B1 VHH with T53S, Y59F, T61A, D89E
B40: 1.46b (VHH)
VHH: B2 VHH with G31D, T35S, S115W
B41: 1.11b (VHH)
VHH: B1 VHH with T33D, M37I, L45Q, T53R, I57T, T61A, D89E, S107T
B42: 1.19b (VHH)
VHH: B1 VHH with E1Q, L5V, D89E, S107T
B43: 1.5b (VHH)
VHH: B1 VHH with L5V, S56N, I57T
B44: 1.6b (VHH)
VHH: B1 VHH with S56T, N84S
B45: 1.56b (VHH)
VHH: B2 VHH with G31D, S32N, G56A, I58K, S115L
B46: 1.9b (VHH)
VHH: B1 VHH with E1Q, L5V, S30G, S56T, N84D
B47: 1.3b (VHH)
VHH: B1 VHH with E1Q, L5V
B48: 1.21b (VHH)
VHH: B1 VHH with L5V, I114T
B49: 1.34b (VHH)
VHH: B1 VHH with L5V, I57V
B50: 1.27b (VHH)
VHH: B1 VHH with E1Q, Q3T, L5K
B51: 1.16b (VHH)
VHH: B1 VHH with L5V, T35S
B52: 1.44b (VHH)
VHH: B2 VHH with G31D, S32N, G56A, I58K, S115W
B53: 1.8b (VHH)
VHH: B1 VHH with L5V, D89G

Residue numbers refer to the chain shown, from its start.

For the assay, the target named is T1, human PD-1 expressed on cells (CHO TREX human PD1 cell line, full-length human PD-1 sequence) (human, UniProt Q15116 21-288).
T1 construct: Also used for human PD-1 on Jurkat reporter cells, on PathHunter cells and on PHA-stimulated human CD4+ T cells; also called CHO human PD1 cells; CHO human PD-1 cells
T1 sequence (Q15116 21-288): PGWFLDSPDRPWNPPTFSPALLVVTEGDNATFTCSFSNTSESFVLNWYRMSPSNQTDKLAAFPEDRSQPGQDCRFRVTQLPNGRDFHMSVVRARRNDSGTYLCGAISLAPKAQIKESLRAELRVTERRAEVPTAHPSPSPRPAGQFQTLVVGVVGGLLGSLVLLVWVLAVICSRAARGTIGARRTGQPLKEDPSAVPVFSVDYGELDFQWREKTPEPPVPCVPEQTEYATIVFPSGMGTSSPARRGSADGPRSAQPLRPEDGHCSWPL
The assay can be described thus: worded summary of the screens.
For B1, the binding result is listed as “binds”.

As for B2, the binding result was “binds”.

B3: the binding result is on record as “binds”.

For B4, the binding result is recorded as “binds”.

With B5, the binding result is listed as “binds”.

As for B6, the binding result is listed as “binds”.

For B7, the binding result is recorded as “binds”.

Take B8: the binding result is “binds”.

B9: the binding result is listed as “binds”.

Take B10: the binding result is “binds”.

Take B11: the binding result is “binds”.

In the case of B12, the binding result is on record as “binds”.

On to B13, for which the binding result is recorded as “binds”.

Turning to B14, the binding result is on record as “binds”.

As to B15, the binding result is given as “binds”.

Regarding B16, the binding result is “binds”.

For B17, the binding result is on record as “binds”.

With B18, the binding result is recorded as “binds”.

In the case of B19, the binding result is “binds”.

Regarding B20, the binding result is “binds”.

In the case of B21, the binding result is listed as “binds”.

With B22, the binding result was “binds”.

Take B23: the binding result is “binds”.

As for B24, the binding result is listed as “binds”.

In the case of B25, the binding result is reported as “binds”.

For the molecule B26, the binding result was “binds”.

For B27, the binding result was “binds”.

Turning to B28, the binding result is reported as “binds”.

Regarding B29, the binding result is “binds”.

B30: the binding result was “binds”.

Take B31: the binding result is recorded as “binds”.

In the case of B32, the binding result was “binds”.

B33: the binding result is given as “binds”.

With B34, the binding result was “binds”.

Consider B35, for which the binding result is given as “binds”.

Consider B36, for which the binding result is “binds”.

Consider B37, for which the binding result is listed as “binds”.

As to B38, the binding result is “binds”.

On to B39, for which the binding result is “binds”.

On to B40, for which the binding result is reported as “binds”.

On to B41, for which the binding result is listed as “binds”.

For the molecule B42, the binding result is on record as “binds”.

Regarding B43, the binding result was “binds”.

With B44, the binding result was “binds”.

Take B45: the binding result was “binds”.

In the case of B46, the binding result is listed as “binds”.

With B47, the binding result was “binds”.

As to B48, the binding result is “binds”.

As for B49, the binding result is reported as “binds”.

Regarding B50, the binding result is reported as “binds”.

Consider B51, for which the binding result is “binds”.

Take B52: the binding result was “binds”.

For the molecule B53, the binding result is reported as “binds”.

The values above are taken from patent US20220306744A1 (CRESCENDO BIOLOGICS, published 2022).
